Patent publication US11572572B2, “A138T mutation-containing plant EPSPS mutant, and encoding gene and application thereof” (GEVOTO LLC, priority 2017, dated 2023)
Changes are numbered by the printed parent chain.

B1: R0: wild-type Oryza sativa EPSPS (SEQ ID NO: 5), encoding gene SEQ ID NO: 14; control group of Example 5 (protein, listed as Oryza sativa)
chain: MASNAAAAAAKAEEIVLQPIREISGAVQLPGSKSLSNRILLLSALSEGTTVVDNLLNSEDVHYMLEALKALGLSVEADKVAKRAVVVGCGGKFPVEKDAKEEVQLFLGNAGTAMRPLTAAVTAAGGNATYVLDGVPRMRERPIGDLVVGLKQLGADVDCFLGTECPPVRVKGIGGLPGGKVKLSGSISSQYLSALLMAAPLALGDVEIEIIDKLISIPYVEMTLRLMERFGVKAEHSDSWDRFYIKGGQKYKSPGNAYVEGDASSASYFLAGAAITGGTVTVQGCGTTSLQGDVKFAEVLEMMGAKVTWTDTSVTVTGPPREPYGKKHLKAVDVNMNKMPDVAMTLAVVALFADGPTAIRDVASWRVKETERMVAIRTELTKLGASVEEGPDYCIITPPEKLNITAIDTYDDHRMAMAFSLAACADVPVTIRDPGCTRKTFPNYFDVLSTFVRN
B2: R2: Oryza sativa EPSPS mutant having only the G111(96)A mutation (SEQ ID NO: 2), encoding gene SEQ ID NO: 16 (protein)
chain: B1 chain with G111A
modifications: Oryza sativa EPSPS mutant with only G111(96)A mutation
B3: R1: Oryza sativa EPSPS mutant I with A155(138)T mutation (SEQ ID NO: 6), encoding gene SEQ ID NO: 15 (protein)
chain: B1 chain with A155T
modifications: Oryza sativa EPSPS mutant with mutation A155(138)T

How the values were obtained:
[1] = tested on: double-knockout Escherichia coli strain (EDCE); assay: Growth of double-knockout E. coli (EDCE) transformed with Oryza sativa EPSPS genes in glyphosate media (Example 5); assay type: cell-based; conditions: Example 5, FIG. 1
From the text: An Escherichia coli strain transformed with the Oryza sativa EPSPS mutant I-encoding gene according to Example 1 was used as Experimental Group 1 (having only the A155(138)T mutation).
An Escherichia coli strain transformed with the Oryza sativa EPSPS mutant II-encoding gene according to Example 2 was used as Experimental Group 3 (having the G111(96)A mutation and A155(138)T mutation).
An Escherichia coli strain transformed with a wild-type Oryza sativa EPSPS-encoding gene (SEQ ID NO: 14, encoding wild-type Oryza sativa EPSPS set forth in SEQ ID NO: 5) was used as a control group.
The glyphosate resistance of the Oryza sativa EPSPS mutant I-encoding gene and the encoded Oryza sativa EPSPS mutant I in Escherichia coli, and the glyphosate resistance of the Oryza sativa EPSPS mutant II-encoding gene and the encoded Oryza sativa EPSPS mutant II in Escherichia coli were verified by detecting the growth statuses of the transformed Escherichia coli in media containing different concentrations of glyphosate (0 mM, 1 mM, 2 mM, 20 mM) (media obtained by using M9 as a basal medium and then adding certain concentrations of antibiotics Spec (Spectinomycin), Gen (Gentamycin), and Amp (Ampicillin) and different concentrations of glyphosate).
Here, the Escherichia coli strain used was an double-knockout Escherichia coli strain (Escherichia coli strain DH5a from which an EPSPS gene and a C-P Lyase gene were knocked out, named EDCE, which may be prepared by a method with reference to Chinese Patent Application No. 2016103256926).
The detection was carried out by a method well known in the art, which was briefly described below. Gene encoding Oryza sativa EPSPS mutants was synthesized by a chemical synthesis method, wherein enzymatic digestion sites (Pacl and Sbfl) were introduced at both ends of the gene. The gene were enzymatically cleaved and then ligated in the presence of ligase to an expression vector (e.g., pADV5 vector having a structure as shown in FIG. 4) subjected to the same enzymatic digestion treatment, and then were transformed into the double-knockout Escherichia coli strain. After verification, positive clones were picked out and inoculated and grown in media containing glyphosate. The growth statuses were observed.

[2] = tested on: transgenic rice seedlings; assay: Glyphosate resistance of EPSPS mutants in transgenic rice sprayed with glyphosate (Example 8); assay type: in vivo, rice (Nipponbare); conditions: for glyphosate resistance of transformed rice seedlings (in words): after spraying with 1× glyphosate
From the text: The glyphosate resistance of the EPSPS mutants of the above examples in transgenic rice was detected by the following method.
Plasmids of monoclonal resistant strain comprising pADV5-EPSPS of Examples 1-4 (containing the EPSPS mutant genes) were extracted in accordance with a conventional method. They were subjected to double enzymatic digestion with Pacl and BstEII to recover small fragments, and then the small fragments were ligated, using T4 DNA ligase, to a pGVP1 vector subjected to double enzymatic digestion in the same manner, to obtain a pGVP1-EPSPS vector having a structure as shown in FIG. 8.
The pGVP1-EPSPS vector was transformed into EHA105 (Agrobacterium tumefaciens) competent cells, and single clones were picked out for colony PCR detection to obtain positive strains. Then, the positive strains were inoculated into and propagated in 1 mL of a YEP medium containing 50 μg·mL^−1 kanamycin and 50 μg·mL^−1 rifampicin, and stored at −80° C. or used in subsequent experiments.
400 ul of a strain containing the target gene vector stored at −80° C. was added to a culture dish with a solid medium containing YEP+50 μg/mL rifampicin+50 μg/mL kanamycin and cultured in the dark at 28° C. for 24 hours, and then the bacterium was added to an infection medium and adjusted to OD=0.2 as an infection solution.
Disinfection and Pre-culture: seeds of mature rice (Nipponbare) were manually dehulled. Full seeds with no bacterial plaques were selected and disinfected in accordance with the following steps: the seeds were placed in a 50 ml sterile centrifuge tube and disinfected with the added 70% ethanol in water for 30 seconds, ethanol solution was poured out, and the seeds were washed once with sterile water; 10 to 20 ml of 2.6% sodium hypochlorite solution was added to soak and disinfect the seeds for 20 minutes. The sodium hypochlorite solution was poured out, and the seeds were soaked and washed with sterile water for 6 or 7 times, for 3 minutes each time.
Induction and Subculture: the seeds were placed on and blotted with sterile filter paper, and the mature embryos were placed in an induction medium, with 12 embryos per dish. After the operation was completed, the culture dishes were sealed with parafilm and underwent culturing in the dark at 30° C. for 21 to 28 days. Callus tissue was transferred to a fresh medium and continued to be cultured for about 7 to 14 days. Spherical callus tissue with a dimension of 1 to 2 mm was taken as an infection receptor.
The callus tissue was placed into a centrifuge tube or culture cup, infected in the prepared Agrobacterium suspension added thereto for 10 minutes, and shaken several times during the period; the bacterial solution was poured out, the callus tissue was taken out and placed on sterile filter paper for absorbing the bacterial solution from its surface (for about 30 minutes); the callus tissue was placed on sterile filter paper in culture dishes and cultured in the dark at 25° C. for 2 or 3 days.
Recovery Culture: the co-cultured callus tissue was inoculated on a recovery medium and cultured in the dark at 30° C. for 5 to 7 days.
Primary Screening: the callus was transferred to screening medium 1 (51) and cultured in the dark at 30° C. for 14 days.
Secondary Screening: the callus was then transferred to screening medium 2 (S2) and cultured in the dark at 30° C. for 14 days.
Primary Differentiation: the screened resistant callus tissue was transferred to a differentiation medium and cultured for about 21 days at 30° C. under exposure to light for 19 hours.
Secondary Differentiation: new young shoots were selected and moved to a fresh differentiation medium and continued to be cultured for about 21 days.
When the new seedlings grew to about 2 cm, they were moved to a rooting medium and cultured for 3 to 4 weeks at 30° C. under exposure to light (for 16/8 h). […]

[3] = medium containing 1 mM glyphosate
[4] = medium containing 2 mM glyphosate
[5] = medium containing 20 mM glyphosate
[6] = 1X dose glyphosate (1,060 g/ha), day 10 after spraying
[7] = 2X dose glyphosate (2,120 g/ha) on survivors of 1X, after another 10 days
[8] = 5X dose glyphosate (5,300 g/ha) on survivors of 2X, after additional 10 days
[9] = 20X dose glyphosate (21,200 g/ha) on survivors of 5X, after further 10 days

| Molecule | growth status of transformed Escherichia coli [1, 3] | growth status of transformed Escherichia coli [1, 4] | growth status of transformed Escherichia coli [1, 5] | % ++&+++ (percentage of moderately and highly glyphosate resistant plants in total plants observed) [2, 6] | plant number with resistance + (low glyphosate resistant) [2, 6] | plant number with resistance ++ (moderately glyphosate resistant) [2, 6] | plant number with resistance +++ (highly glyphosate resistant) [2, 6] | % ++&+++ (percentage of moderately and highly glyphosate resistant plants in total plants observed) [2, 7] | plant number with resistance + (low glyphosate resistant) [2, 7] | plant number with resistance ++ (moderately glyphosate resistant) [2, 7] | plant number with resistance +++ (highly glyphosate resistant) [2, 7] | plant number with resistance − (non-glyphosate resistant, withered or dead) [2, 7] | % ++&+++ (percentage of moderately and highly glyphosate resistant plants in total plants observed) [2, 8] | plant number with resistance + (low glyphosate resistant) [2, 8] | plant number with resistance ++ (moderately glyphosate resistant) [2, 8] | plant number with resistance +++ (highly glyphosate resistant) [2, 8] | plant number with resistance − (non-glyphosate resistant, withered or dead) [2, 8] | % ++&+++ (percentage of moderately and highly glyphosate resistant plants in total plants observed) [2, 9] | plant number with resistance + (low glyphosate resistant) [2, 9] | plant number with resistance ++ (moderately glyphosate resistant) [2, 9] | also measured |
| --- | --- | --- | --- | --- | --- | --- | --- | --- | --- | --- | --- | --- | --- | --- | --- | --- | --- | --- | --- | --- | --- |
| B1 | could not grow | could not grow | could not grow | 0.0% | 1 | 0 | 0 | 0.0% | 0 | 0 | 0 | 31 | 0.0% | 0 | 0 | 0 | 31 | 0.0% | 0 | 0 | growth status of transformed Escherichia coli ([1]; medium containing 0 mM glyphosate): could grow; plant number with resistance +++ (highly glyphosate resistant) [2, 9]: 0; plant number with resistance − (non-glyphosate resistant, withered or dead) [2, 9]: 31; glyphosate resistance of transformed rice seedlings (in words) [2]: all had no resistance |
| B2 | showed bacterial plaques | could not grow | could not grow | 69.2% | 2 | 1 | 8 | 61.5% | 2 | 2 | 6 | 3 | 46.2% | 2 | 3 | 3 | 5 | 15.4% | 4 | 1 | plant number with resistance +++ (highly glyphosate resistant) [2, 9]: 1; plant number with resistance − (non-glyphosate resistant, withered or dead) [2, 9]: 7 |
| B3 | showed bacterial plaques | could not grow | could not grow | 58.1% | 8 | 7 | 11 | 0.0% | 5 | 0 | 0 | 26 | 0.0% | 1 | 0 | 0 | 30 | 0.0% | 0 | 0 | survival of transformed rice seedlings (in words) ([2]; 2× and 5× glyphosate doses): all of them survived; plant number with resistance +++ (highly glyphosate resistant) [2, 9]: 0; plant number with resistance − (non-glyphosate resistant, withered or dead) [2, 9]: 31; glyphosate resistance of transformed rice seedlings (in words) [2]: significantly better glyphosate resistance than that of R0 |
